Measured values published in the supplement of paper PMC11908140.

B1: library; numbered along this chain (parent)
chain: MRKPRAAVGSGHRKQAASQEGRQKHAKNNSQAKPSACDGLARQPEEVVLQASVSSYHLFRDVAEVTAFRGSLLSWYDQEKRDLPWRRRAEDEMDLDRRAYAVWVSEVMLQQTQVATVINYYTGWMQKWPTLQDLASASLEEVNQLWAGLGYYSRGRRLQEGARKVVEELGGHMPRTAETLQQLLPGVGRYTAGAIASIAFGQATGVVDGNVARVLCRVRAIGADPSSTLVSQQLWGLAQQLVDPARPGDFNQAAMELGATVCTPQRPLCSQCPVESLCRARQRVEQEQLLASGSLSGSPDVEECAPNTGQCHLCLPPSEPWDQTLGVVNFPRKASRKPPREESSATCVLEQPGALGAQILLVQRPNSGLLAGLWEFPSVTWEPSEQLQRKALLQELQRWAGPLPATHLRHLGEVVHTFSHIKLTYQVYGLALEGQTPVTTVPPGARWLTQEEFHTAAVSTAMKKVFRVYQGQQPGTCMGSKRSQVSSPCSRKKPRMGQQVLDNFFRSHISTDAHSLNSAAQ

Variants of: B1
Assay: 8OG:A repair function score (normalized; synonymous = 0, nonsense = -1) (normalized log-likelihood score); higher = more repair activity (WT-like)
Settings: with 8OG:A DNA repair reporter (GFP) in HEK-293 MUTYH KO cells
Experimental: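 Saturation mutagenesis (NNN codon scan) of the MUTYH cDNA (521-aa nuclear isoform NM_001048174.1 / NP_001041639), stably expressed under doxycycline induction in HEK-293 MUTYH knockout cells. Cells were co-transfected with an 8OG:A-bearing GFP repair reporter plus mCherry and sorted 72 h later into GFP+ and GFP− bins, three replicates per tile. The Rosace log2 enrichment (GFP+ vs GFP−) was converted per tile to a normalized function score with synonymous variants centered at 0 and nonsense variants (codons 1-471) at -1; low-abundance variants were removed.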

| Variant | 8OG:A repair function score |
| --- | --- |
| MRKPRAAVGSGHRKQAASQEGRQKHAKNNSQAKPSACDGLARQPEEVVLQASVSSYHLFRDVAEVTAFRGSLLSWYDQEKRDLPWRRRAEDEMDLDRRAYAVWVSEVMLQQTQVATVINYYTGWMQKWPTLQDLASASLEEVNQLWAGLGYYSRGRRLQEGARKVVEELGGHMPRTAETLQQLLPGVGRYTAGAIASIAFGQATGVVDGNVARVLCRVRAIGADPSSTLVSQQLWGLAQQLVDPARPGDFNQAAMELGATVCTPQRPLCSQCPVESLCRARQRVEQEQLLASGSLSGSPDVEECAPNTGQCHLCLPPSEPWDQTLGVVNFPRKASRKPPREESSATCCLEQPGALGAQILLVQRPNSGLLAGLWEFPSVTWEPSEQLQRKALLQELQRWAGPLPATHLRHLGEVVHTFSHIKLTYQVYGLALEGQTPVTTVPPGARWLTQEEFHTAAVSTAMKKVFRVYQGQQPGTCMGSKRSQVSSPCSRKKPRMGQQVLDNFFRSHISTDAHSLNSAAQ [V348C] | -0.104 |
| MRKPRAAVGSGHRKQAASQEGRQKHAKNNSQAKPSACDGLARQPEEVVLQASVSSYHLFRDVAEVTAFRGSLLSWYDQEKRDLPWRRRAEDEMDLDRRAYAVWVSEVMLQQTQVATVINYYTGWMQKWPTLQDLASASLEEVNQLWAGLGYYSRGRRLQEGARKVVEELGGHMPRTAETLQQLLPGVGRYTAGAIASIAFGQATGVVDGNVARVLCRVRAIGADPSSTLVSQQLWGLAQQLVDPARPGDFNQAAMELGATVCTPQRPLHSQCPVESLCRARQRVEQEQLLASGSLSGSPDVEECAPNTGQCHLCLPPSEPWDQTLGVVNFPRKASRKPPREESSATCVLEQPGALGAQILLVQRPNSGLLAGLWEFPSVTWEPSEQLQRKALLQELQRWAGPLPATHLRHLGEVVHTFSHIKLTYQVYGLALEGQTPVTTVPPGARWLTQEEFHTAAVSTAMKKVFRVYQGQQPGTCMGSKRSQVSSPCSRKKPRMGQQVLDNFFRSHISTDAHSLNSAAQ [C269H] | -0.96 |
| MRKPRAAVGSGHRKQAASQEGRQKHAKNNSQAKPSACDGLARQPEEVVLQASVSSYHLFRDVAEVTAFRGSLLSWYDQEKRDLPWRRRAEDEMDLDRRAYAVWVSEVMLQQTQVATVINYYTGWMQKWPTLQDLASASLEEVNQLWAGLGYYSRGRRLQEGARKVVEELGGHMPRTAETLQQLLPGVGRYTAGAIASIAFGQATGVVDGNVARVLCRVRAIGADPSSTLVSQQLWGLAQQLVDPARPGDFNQAAMELGATTCTPQRPLCSQCPVESLCRARQRVEQEQLLASGSLSGSPDVEECAPNTGQCHLCLPPSEPWDQTLGVVNFPRKASRKPPREESSATCVLEQPGALGAQILLVQRPNSGLLAGLWEFPSVTWEPSEQLQRKALLQELQRWAGPLPATHLRHLGEVVHTFSHIKLTYQVYGLALEGQTPVTTVPPGARWLTQEEFHTAAVSTAMKKVFRVYQGQQPGTCMGSKRSQVSSPCSRKKPRMGQQVLDNFFRSHISTDAHSLNSAAQ [V261T] | -0.0821 |
| MRKPRAAVGSGHRKQAASQEGRQKHAKNNSQAKPSACDGLARQPEEVVLQASVSSYHLFRDVAEVTAFRGSLLSWYDQEKRDLPWRRRAEDEMDLDRRAYAVWVSEVMLQQTQVATVINYYTGWMQKWPTLQDLASASLEEVNQLWAGLGYYSRGRRLQEGARKVVEELGGHMPRTAETLQQLLPGVGRYTAGAIASIAFGQATGVVDGNVARVLCRVRAIGADPSSTLVSQQLWGLAQQLVDPARPGDFNQAAMELGATVCTPQRPLCSQCPVESLCRARQRVEQEQLLASGSLSGSPDVEECAPNTGQCHLCLPPSEPWDQTLGVVNFPRKASRKPPREESSATCVLEQPGALGAQILLVQRPNSGLLAGLWEFPSVTWEPSEQLQRKALLQELQRWAGPLPATHLRHLGEVVHTFSHIKLTYQFYGLALEGQTPVTTVPPGARWLTQEEFHTAAVSTAMKKVFRVYQGQQPGTCMGSKRSQVSSPCSRKKPRMGQQVLDNFFRSHISTDAHSLNSAAQ [V427F] | -1.1 |
| MRKPRAAVGSGHRKQAASQEGRQKHAKNNSQAKPSACDGHARQPEEVVLQASVSSYHLFRDVAEVTAFRGSLLSWYDQEKRDLPWRRRAEDEMDLDRRAYAVWVSEVMLQQTQVATVINYYTGWMQKWPTLQDLASASLEEVNQLWAGLGYYSRGRRLQEGARKVVEELGGHMPRTAETLQQLLPGVGRYTAGAIASIAFGQATGVVDGNVARVLCRVRAIGADPSSTLVSQQLWGLAQQLVDPARPGDFNQAAMELGATVCTPQRPLCSQCPVESLCRARQRVEQEQLLASGSLSGSPDVEECAPNTGQCHLCLPPSEPWDQTLGVVNFPRKASRKPPREESSATCVLEQPGALGAQILLVQRPNSGLLAGLWEFPSVTWEPSEQLQRKALLQELQRWAGPLPATHLRHLGEVVHTFSHIKLTYQVYGLALEGQTPVTTVPPGARWLTQEEFHTAAVSTAMKKVFRVYQGQQPGTCMGSKRSQVSSPCSRKKPRMGQQVLDNFFRSHISTDAHSLNSAAQ [L40H] | 0.00147 |
| MRKPRAAVGSGHRKQAASQEGRQKHAKNNSQAKPSACDGLARQPEEVVLQASVSSYHLFRDVAEVTAFRGSLLSWYDQEKRDLPWRRRAEDEMDLDRRAYAVWVSEVMLQQTQVATVINYYTGWMQKWPTLQDLASASLEEVNQLWAGLGYYSRGRRLQEGARKVVEELGGHMPRTAETLQQLLPGVGRYTAGAIASIAFGQATGVVDGNVARVLCRVRAIGADPSSTLVSQQLWGLAQQLVDPARPGDFNQAAMELGATVCTPQRPLCSQCPVESLCRARQRVEQEQLLASGSLSGSPDVEECAPNTGQCHLCLPPSEPWDQTLGVVNFPRKASRKPPREESSATCVLEQPGALGAQILLVQRPNSGLLAGLWEFPSVTWEPSEQLQRKALLQELQRWAGPLPATHLRHLGEVVHTFSHIKLTYQVYGLALEGQTPVTTVPVGARWLTQEEFHTAAVSTAMKKVFRVYQGQQPGTCMGSKRSQVSSPCSRKKPRMGQQVLDNFFRSHISTDAHSLNSAAQ [P443V] | 0.172 |
| MRKPRAAVGSGHRKQAASQEGRQKHAKNNSQAKPSACDGLARQPEEVVLQASVSSYHLFRDVAEVTAFRGSLLSWYDQEKRDLPWRRRAEDEMDLDRRAYAVWVSEVMLQQTQVATVINYYTGWMQKWPTLQDLASASLEEVNQLWAGLGYYSRGRRLQEGARKVVEELGGHMPRTAETLQQLLPGVGRYTAGAIASIAFGQATGVVDGNVARVLCRVRAIGADPSSTLVSQQLWGLAQQLVDPARPGDFNQAAMELGATVCTPQRPLCSQCPVESLCRARQRVEQEQLLASGSLSGSPDVEECAPNTGQCHLCLPPSEPWDQTLGVVNFPRKASRKPPREESSATCVLEQPGALGAQILLVQRPNSGLLAGLWEFPSVTWEPSEQLQRKALLQELQRWAGPLPATHLRHLGEVVHTFSHIQLTYQVYGLALEGQTPVTTVPPGARWLTQEEFHTAAVSTAMKKVFRVYQGQQPGTCMGSKRSQVSSPCSRKKPRMGQQVLDNFFRSHISTDAHSLNSAAQ [K422Q] | 0.195 |
| MRKPRAAVGSGHRKQAASQEGRQKHAKNNSQAKPSACDGLARQPEEVVLQASVSSYHLFRDVAEVTAFRGSLLSWYDQEKRDLPWRRRAEDEMDLDRRAYAVWVSEVMLQQTQVATVINYYTGWMQKWPTLQDLASASLEEVNQLWAGLGYYSRGRRLQEGARKVVEELGGHMPRTAETLQQLLPGVGRYTAGAIASIAFGQATGVVDGNVARVLCRVRAIGADPSSTLVSQQLWGLAQQLVDPARPGDFNQAAMELGATVCTPQRPLCSQCPVESLCRARQRVEQEQLLASGSLSGSPDVEECAPNTGQCHLCLPPSEPWDQTLGVVNFPRKASRKPPREESSATCVLEQPGALGAQILLVQRPNSGLLAGLWEFPSVTWEPSEQLQRKALLQELQRWAGPLPATHLRHLGEVVHTFSHIKLTYQVYGLALEGQTPVTTVPPGARWLTQEEFHTAAVSTACKKVFRVYQGQQPGTCMGSKRSQVSSPCSRKKPRMGQQVLDNFFRSHISTDAHSLNSAAQ [M462C] | -0.0756 |
| MRKPRAAVGSGHRKQAASQEGRQKHAKNNSQAKPSACDGLARQPEEVVLQASVSSYHLFRDVAEVTAFRGSLLSWYDQEKRDLPWRRRAEDEMDLDRRAYAVWVSEVMLQQTQVATVINYYTGWMQKWPTLQDLASASLEEVNQLWAGLGYYSRGRRLQEGARKVVEELGGHMPRTAETLQQLLPGVGRYTAGAIASIAFGQATGVVDGNVARVLCRVRAYGADPSSTLVSQQLWGLAQQLVDPARPGDFNQAAMELGATVCTPQRPLCSQCPVESLCRARQRVEQEQLLASGSLSGSPDVEECAPNTGQCHLCLPPSEPWDQTLGVVNFPRKASRKPPREESSATCVLEQPGALGAQILLVQRPNSGLLAGLWEFPSVTWEPSEQLQRKALLQELQRWAGPLPATHLRHLGEVVHTFSHIKLTYQVYGLALEGQTPVTTVPPGARWLTQEEFHTAAVSTAMKKVFRVYQGQQPGTCMGSKRSQVSSPCSRKKPRMGQQVLDNFFRSHISTDAHSLNSAAQ [I221Y] | -0.63 |
| MRKPRAAVGSGHRKQAASQEGRQKHAKNNSQAKPSACDGLARQPEEVVLQASVSSYHLFRDVAEVTAFRGSLLSWYDQEKRDLPWRRRAEDEMDLDRRAYAVWVSEVMLQQTQVATVINYYTGWMQKWPTLQDLASASLEEVNQLWAGLGYYSRGRRLQEGARKVVEELGGHMPRTAETLQQLLPGVGRYTAGAIASIAFGQATGVVDGNVARVLCRVRAIGADPSSTLVSQQLWGLAQQLVDPARPGDFNQAAMELGATVCTPQRPLCSQCPVESLCRARQRVEQEQLLASGSLSGSPDVEECAPNTGQCHLCLPPSEPWDQTLGVVNFPRKASRKPPREEQSATCVLEQPGALGAQILLVQRPNSGLLAGLWEFPSVTWEPSEQLQRKALLQELQRWAGPLPATHLRHLGEVVHTFSHIKLTYQVYGLALEGQTPVTTVPPGARWLTQEEFHTAAVSTAMKKVFRVYQGQQPGTCMGSKRSQVSSPCSRKKPRMGQQVLDNFFRSHISTDAHSLNSAAQ [S343Q] | -0.144 |
| MRKPRAAVGSGHRKQAASQEGRQKHAKNNSQAKPSACDGLARQPEEVVLQASVSSYHLFRDVAEVTAFRGSLLSWYDQEKRDLPWRRRAEDEMDLDRRAYAVWVSEVMLQQTQVATVINYYTGWMQKWPTLQDLASASLEEVNQLWAGLGYYSRGRRLQEGARKVVEELGGHMPRTAETLQQLLPGVGRYTAGAIASIAFGQATGVVDGNVARVLCRVRAIGADPSSTLVSQQLWGLAQQLVDPARPGDFNQAAMELGATVCTPQRPLCSQCPVESLCRARQRVEQEQLLASGSLSGSPDVEECAPNTGQCHLCLQPSEPWDQTLGVVNFPRKASRKPPREESSATCVLEQPGALGAQILLVQRPNSGLLAGLWEFPSVTWEPSEQLQRKALLQELQRWAGPLPATHLRHLGEVVHTFSHIKLTYQVYGLALEGQTPVTTVPPGARWLTQEEFHTAAVSTAMKKVFRVYQGQQPGTCMGSKRSQVSSPCSRKKPRMGQQVLDNFFRSHISTDAHSLNSAAQ [P316Q] | 0.0822 |
| MRKPRAAVGSGHRKQAASQEGRQKHAKNNSQAKPSACDGLARQPEEVVLQASVSSYHLFRDVAEVTAFRGSLLSWYDQEKRDLPWRRRAEDEMDLDRRAYAVWVSEVMLQQTQVATVINYYTGWMQKWPTLQDLASASLEEVNQLWAGLGYYSRGRRLQEGARKVVEELGGHMPRTAETLQQLLPGVGRYTAGAIASIAFGQATGVVDGNVARVLCRVRAIGADPSSTLVSQQLWGLAQQLVDWARPGDFNQAAMELGATVCTPQRPLCSQCPVESLCRARQRVEQEQLLASGSLSGSPDVEECAPNTGQCHLCLPPSEPWDQTLGVVNFPRKASRKPPREESSATCVLEQPGALGAQILLVQRPNSGLLAGLWEFPSVTWEPSEQLQRKALLQELQRWAGPLPATHLRHLGEVVHTFSHIKLTYQVYGLALEGQTPVTTVPPGARWLTQEEFHTAAVSTAMKKVFRVYQGQQPGTCMGSKRSQVSSPCSRKKPRMGQQVLDNFFRSHISTDAHSLNSAAQ [P244W] | -0.457 |
